Laboratory results taken from publication PMC5365662, “A Short Double-Stapled Peptide Inhibits Respiratory Syncytial Virus Entry and Spreading” (Antimicrobial Agents and Chemotherapy, 2017).
Bridge positions count the residues as written; N and C are the ends. Square brackets hold non-standard residues; d marks the D form. Peptide text beside a SMILES is read from it. R8 = C=CCCCCCC[C@@](C)(N)C(=O)O; R5 = C=CCCC[C@@](C)(N)C(=O)O; S5 = C=CCCC[C@](C)(N)C(=O)O

How the values were obtained:
circular dichroism = conditions: 10 mM phosphate; pH 7.5; 25 °C; 50 uM
[1] = test system: rHRSV-mCherry in HEp-2 cells; assay: rHRSV-mCherry inhibition assay; assay type: cell-based, human respiratory syncytial virus; conditions: Table 3 (Ala scan); HEp-2 cells, rHRSV-mCherry MOI 0.2, 2-fold serial dilutions (11 dilutions), duplicate; ± SD of fit
Experimental: To measure the inhibitory activity of the peptide, the mCherry red fluorescence was quantified 48 h postinfection (p.i.).
Viral replication was quantified by measuring the mCherry fluorescence at 48 h p.i. and normalized based on the fluorescence of infected and untreated cells. (B) Cytotoxicity assay. HEp-2 cells were incubated in the presence of serial dilutions of peptides, and cell survival was quantified using the CellTiter-Glo Luminescent cell viability assay 24 h after the addition of the peptides. The signal was normalized based on the luminescence obtained for untreated cells. Error bars are standard deviations from duplicates.
HEp-2 cells were seeded at 5 × 10^4 cells per well in a 96-well plate the day before the infection. Peptides were 2-fold serially diluted in dimethyl sulfoxide (DMSO) (11 dilutions) and then further diluted in EMEM without phenol red and preincubated for 15 to 20 min with rHRSV-mCherry ([24]) at a final dilution with an MOI of 0.2 ([24]). The cells were incubated with the virus-peptide mixtures for a period of 1.5 to 2 h. The medium was then replaced by EMEM without phenol red containing 2% fetal bovine serum and the same concentration of peptide as the one that was used during the infection step. Plates were incubated 48 h at 37°C, and the mCherry fluorescence was measured using a spectrofluorometer (Tecan infinite M200PRO) with excitation and emission wavelengths of 580 and 620 nm, respectively. Relative fluorescence was normalized by the fluorescence of nontreated infected cells. Noninfected HEp-2 cells were used as standards for fluorescence background levels. Each experiment was performed in duplicate and repeated at least twice. The resulting inhibition curves were fitted in Igor Pro as described above.

Structure (SMILES)	helicity (circular dichroism) [%]	EC50 [1] [nM]
CC[C@H](C)[C@H](NC(=O)[C@H](CCCCN)NC(=O)[C@H](CCC(=O)O)NC(C)=O)C(=O)N[C@@]1(C)CCCC=CCCC[C@@](C)(C(=O)N[C@@H](Cc2ccccc2)C(=O)N[C@H](C(=O)N[C@@]2(C)CCCC=CCCC[C@@](C)(C(=O)N[C@@H](CC(C)C)C(=O)N[C@@H](CC(C)C)C(=O)N[C@@H](Cc3c[nH]cn3)C(=O)N[C@@H](CC(N)=O)C(=O)N[C@H](C(N)=O)C(C)C)NC(=O)[C@H](CC(=O)O)NC(=O)[C@H](CO)NC(=O)[C@H](CCCCN)NC2=O)[C@@H](C)CC)NC(=O)[C@H](C)NC(=O)[C@H](CO)NC(=O)[C@H](CCC(N)=O)NC1=O [Peptide L503A] (Ac-EKI[S5]QSA[S5]FI[S5]KSD[S5]LLHNV-NH2; staple 4-8, 11-15)	38	950 ± 530
CC[C@H](C)[C@H](NC(=O)[C@H](C)NC(=O)[C@H](CCC(=O)O)NC(C)=O)C(=O)N[C@@]1(C)CCCC=CCCC[C@@](C)(C(=O)N[C@@H](Cc2ccccc2)C(=O)N[C@H](C(=O)N[C@@]2(C)CCCC=CCCC[C@@](C)(C(=O)N[C@@H](CC(C)C)C(=O)N[C@@H](CC(C)C)C(=O)N[C@@H](Cc3c[nH]cn3)C(=O)N[C@@H](CC(N)=O)C(=O)N[C@H](C(N)=O)C(C)C)NC(=O)[C@H](CC(=O)O)NC(=O)[C@H](CO)NC(=O)[C@H](CCCCN)NC2=O)[C@@H](C)CC)NC(=O)[C@H](CC(C)C)NC(=O)[C@H](CO)NC(=O)[C@H](CCC(N)=O)NC1=O [Peptide K498A] (Ac-EAI[S5]QSL[S5]FI[S5]KSD[S5]LLHNV-NH2; staple 4-8, 11-15)	42	600 ± 20
CC[C@H](C)[C@H](NC(=O)[C@H](Cc1ccccc1)NC(=O)[C@]1(C)CCCC=CCCC[C@](C)(NC(=O)[C@@H](NC(=O)[C@H](CCCCN)NC(=O)[C@H](CCC(=O)O)NC(C)=O)[C@@H](C)CC)C(=O)N[C@@H](CCC(N)=O)C(=O)N[C@@H](CO)C(=O)N[C@@H](CC(C)C)C(=O)N1)C(=O)N[C@@H](CCCNC(=N)N)C(=O)N[C@]1(C)CCCCCCC=CCCC[C@@](C)(C(=O)N[C@H](C(N)=O)C(C)C)NC(=O)[C@H](Cc2c[nH]cn2)NC(=O)[C@H](CC(C)C)NC(=O)[C@H](CC(C)C)NC(=O)[C@H](CCC(=O)O)NC(=O)[C@H](CC(=O)O)NC(=O)[C@H](CO)NC1=O [Peptide 4bf] (Ac-EKI[S5]QSL[S5]FIR[R8]SDELLH[S5]V-NH2; staple 4-8, 12-19)	88.9	
CC[C@H](C)[C@H](NC(=O)[C@H](CCCCN)NC(=O)[C@H](CCC(=O)O)NC(C)=O)C(=O)N[C@@]1(C)CCCC=CCCC[C@@](C)(C(=O)N[C@@H](Cc2ccccc2)C(=O)N[C@H](C(=O)N[C@@]2(C)CCCC=CCCC[C@@](C)(C(=O)N[C@@H](CC(C)C)C(=O)N[C@@H](CC(C)C)C(=O)N[C@@H](Cc3c[nH]cn3)C(=O)N[C@@H](CC(N)=O)C(=O)N[C@H](C(N)=O)C(C)C)NC(=O)[C@H](CC(=O)O)NC(=O)[C@H](CO)NC(=O)[C@H](CCCCN)NC2=O)[C@@H](C)CC)NC(=O)[C@H](CC(C)C)NC(=O)[C@H](C)NC(=O)[C@H](CCC(N)=O)NC1=O [Peptide S502A] (Ac-EKI[S5]QAL[S5]FI[S5]KSD[S5]LLHNV-NH2; staple 4-8, 11-15)	15	660 ± 260
CC[C@H](C)[C@H](NC(=O)[C@H](CCCCN)NC(=O)[C@H](CCC(=O)O)NC(C)=O)C(=O)N[C@@]1(C)CCCC=CCCC[C@@](C)(C(=O)N[C@@H](Cc2ccccc2)C(=O)N[C@H](C(=O)N[C@@]2(C)CCCC=CCCC[C@@](C)(C(=O)N[C@@H](CC(C)C)C(=O)N[C@@H](CC(C)C)C(=O)N[C@@H](Cc3c[nH]cn3)C(=O)N[C@@H](CC(N)=O)C(=O)N[C@@H](C)C(N)=O)NC(=O)[C@H](CC(=O)O)NC(=O)[C@H](CO)NC(=O)[C@H](CCCCN)NC2=O)[C@@H](C)CC)NC(=O)[C@H](CC(C)C)NC(=O)[C@H](CO)NC(=O)[C@H](CCC(N)=O)NC1=O [Peptide V516A] (Ac-EKI[S5]QSL[S5]FI[S5]KSD[S5]LLHNA-NH2; staple 4-8, 11-15)	49	600 ± 30
CC[C@H](C)[C@H](NC(=O)[C@H](CCCCN)NC(=O)[C@H](CCC(=O)O)NC(C)=O)C(=O)N[C@@H](C)C(=O)N[C@@H](CCC(N)=O)C(=O)N[C@@H](CO)C(=O)N[C@@H](CC(C)C)C(=O)N[C@@]1(C)CCCC=CCCC[C@@](C)(C(=O)N[C@@H](CO)C(=O)N[C@@H](CC(=O)O)C(=O)N[C@@]2(C)CCCC=CCCC[C@@](C)(C(=O)N[C@H](C(N)=O)C(C)C)NC(=O)[C@H](Cc3c[nH]cn3)NC(=O)[C@H](CC(C)C)NC(=O)[C@H](CC(C)C)NC2=O)NC(=O)[C@H](CCCNC(=N)N)NC(=O)[C@H]([C@@H](C)CC)NC(=O)[C@H](Cc2ccccc2)NC1=O [Peptide N500A] (Ac-EKIAQSL[S5]FIR[S5]SD[S5]LLH[S5]V-NH2; staple 8-12, 15-19)	60	20400 ± 2400
CC[C@H](C)[C@H](NC(=O)[C@H](CCCCN)NC(=O)[C@H](CCC(=O)O)NC(C)=O)C(=O)N[C@@]1(C)CCCC=CCCC[C@@](C)(C(=O)N[C@@H](Cc2ccccc2)C(=O)N[C@H](C(=O)N[C@@]2(C)CCCC=CCCC[C@@](C)(C(=O)N[C@@H](CC(C)C)C(=O)N[C@@H](CC(C)C)C(=O)N[C@@H](Cc3c[nH]cn3)C(=O)N[C@@H](CC(N)=O)C(=O)N[C@H](C(N)=O)C(C)C)NC(=O)[C@H](C)NC(=O)[C@H](CO)NC(=O)[C@H](CCCCN)NC2=O)[C@@H](C)CC)NC(=O)[C@H](CC(C)C)NC(=O)[C@H](CO)NC(=O)[C@H](CCC(N)=O)NC1=O [Peptide D510A] (Ac-EKI[S5]QSL[S5]FI[S5]KSA[S5]LLHNV-NH2; staple 4-8, 11-15)	44	1100 ± 80
CC[C@H](C)[C@H](NC(=O)[C@H](Cc1ccccc1)NC(=O)[C@]1(C)CCCC=CCCC[C@](C)(NC(=O)[C@H](C)NC(=O)[C@H](CCCCN)NC(=O)[C@H](CCC(=O)O)NC(C)=O)C(=O)N[C@@H](CCC(N)=O)C(=O)N[C@@H](CO)C(=O)N[C@@H](CC(C)C)C(=O)N1)C(=O)N[C@@]1(C)CCCC=CCCC[C@@](C)(C(=O)N[C@@H](CC(C)C)C(=O)N[C@@H](CC(C)C)C(=O)N[C@@H](Cc2c[nH]cn2)C(=O)N[C@@H](CC(N)=O)C(=O)N[C@H](C(N)=O)C(C)C)NC(=O)[C@H](CC(=O)O)NC(=O)[C@H](CO)NC(=O)[C@H](CCCCN)NC1=O [Peptide I499A] (Ac-EKA[S5]QSL[S5]FI[S5]KSD[S5]LLHNV-NH2; staple 4-8, 11-15)	24	1300 ± 890
CC[C@H](C)[C@H](NC(=O)[C@H](CCCCN)NC(=O)[C@H](CCC(=O)O)NC(C)=O)C(=O)N[C@@]1(C)CCCC=CCCC[C@@](C)(C(=O)N[C@@H](Cc2ccccc2)C(=O)N[C@H](C(=O)N[C@@]2(C)CCCC=CCCC[C@@](C)(C(=O)N[C@@H](CC(C)C)C(=O)N[C@@H](CC(C)C)C(=O)N[C@@H](C)C(=O)N[C@@H](CC(N)=O)C(=O)N[C@H](C(N)=O)C(C)C)NC(=O)[C@H](CC(=O)O)NC(=O)[C@H](CO)NC(=O)[C@H](CCCCN)NC2=O)[C@@H](C)CC)NC(=O)[C@H](CC(C)C)NC(=O)[C@H](CO)NC(=O)[C@H](CCC(N)=O)NC1=O [Peptide H514A] (Ac-EKI[S5]QSL[S5]FI[S5]KSD[S5]LLANV-NH2; staple 4-8, 11-15)	55	520 ± 70
CC[C@H](C)[C@@H]1NC(=O)[C@H](Cc2ccccc2)NC(=O)[C@@](C)(NC(=O)[C@H](CC(C)C)NC(=O)[C@H](CO)NC(=O)[C@]2(C)CCCC=CCCC[C@@](C)(NC(=O)[C@H](CCC(=O)O)NC(C)=O)C(=O)N[C@@H]([C@@H](C)CC)C(=O)N[C@@H](CC(N)=O)C(=O)N2)CCCC=CCCC[C@@](C)(C(=O)N[C@@H](CO)C(=O)N[C@@H](CC(=O)O)C(=O)N[C@@H](C)C(=O)N[C@@H](CC(C)C)C(=O)N[C@@H](CC(C)C)C(=O)N[C@@H](Cc2c[nH]cn2)C(=O)N[C@@H](CC(N)=O)C(=O)N[C@H](C(N)=O)C(C)C)NC(=O)[C@H](CCCNC(=N)N)NC1=O [Peptide E511A] (Ac-E[R5]IN[S5]SL[S5]FIR[S5]SDALLHNV-NH2; staple 2-5, 8-12)	73	1000 ± 30
CC[C@H](C)[C@H](NC(=O)[C@H](CCCCN)NC(=O)[C@H](CCC(=O)O)NC(C)=O)C(=O)N[C@@]1(C)CCCC=CCCC[C@@](C)(C(=O)N[C@@H](Cc2ccccc2)C(=O)N[C@H](C(=O)N[C@@]2(C)CCCC=CCCC[C@@](C)(C(=O)N[C@@H](CC(C)C)C(=O)N[C@@H](CC(C)C)C(=O)N[C@@H](Cc3c[nH]cn3)C(=O)N[C@@H](C)C(=O)N[C@H](C(N)=O)C(C)C)NC(=O)[C@H](CC(=O)O)NC(=O)[C@H](CO)NC(=O)[C@H](CCCCN)NC2=O)[C@@H](C)CC)NC(=O)[C@H](CC(C)C)NC(=O)[C@H](CO)NC(=O)[C@H](CCC(N)=O)NC1=O [Peptide N515A] (Ac-EKI[S5]QSL[S5]FI[S5]KSD[S5]LLHAV-NH2; staple 4-8, 11-15)	59	2710 ± 2930
